Results reported in PMC3875630 (ACS chemical biology, 2013).
Read-outs that look alike come from different tables or passages of the source.

B1: Selenomethionyl CalS11 (TDP-rhamnose 3'-O-methyltransferase), cell-free synthesized (enzyme, Micromonospora echinospora)
chain: DSGDGQDLRAFVHDSPEETETTQRLTKLLTNSPIPTEELVNNLPLFLRRHQMTDLLSMDALYRQVLDVPGVIMEFGVRFGRHLGTFAALRGVYEPYNPLRRIVGFDTFTGFPDVNDVDRVGPTAYQGRFAVPGGYPAYLKEVLDAHECSDFFGHVTQRSVLVEGDVRETVPRYLAENPQTVIALAYFDLDLYEPTKAVLEAIRPYLTKGSIVAFDELDNPKWPGENIAMRKVLGLDHAPLRLLPGRPAPAYLRWGD
modifications: selenomethionine in place of methionine
B2: Native CalS11 (TDP-rhamnose 3'-O-methyltransferase), from E. coli (enzyme, Micromonospora echinospora)
chain: MDSGDGQDLRAFVHDSPEETETTQRLTKLLTNSPIPTEELVNNLPLFLRRHQMTDLLSMDALYRQVLDVPGVIMEFGVRFGRHLGTFAALRGVYEPYNPLRRIVGFDTFTGFPDVNDVDRVGPTAYQGRFAVPGGYPAYLKEVLDAHECSDFFGHVTQRSVLVEGDVRETVPRYLAENPQTVIALAYFDLDLYEPTKAVLEAIRPYLTKGSIVAFDELDNPKWPGENIAMRKVLGLDHAPLRLLPGRPAPAYLRWGD

Tests used:
crystal structure [1] = target: the molecule itself; assay: crystal structure
crystal structure [2] = target: the molecule itself; assay: crystal structure; remark: listed apart in the source

Row | Protein | stoichiometry N (crystal structure [1]) | stoichiometry N (crystal structure [2])
1 | B1 | 10 | 
2 | B2 |  | 10
